Data as given in patent US20250179176A1, “ANTI-TIGIT ANTIBODIES AND USES OF THE SAME” (ARCUS BIOSCIENCES, INC., priority 2022, published 2025).

Key:
[1] = Pharmacokinetics of domvanalimab in humans; type: in vivo, human; conditions: Q2W
Source text: The present example illustrates the pharmacokinetics of domvanalimab in human subjects. […] Subjects had ≥1 measurable lesion per RECIST v1.1 and ECOG performance status score 0-1.
Examination of the mean PK plots indicated similar PK across the dosing regimens.

[2] = Clinical safety of domvanalimab, 99 participants (AB154CSP0001 and ARC-7): TEAEs, related AEs, SAEs; type: in vivo, human
[3] = first cycle, over 20-fold dose range 0.5-10 mg/kg

B1: domvanalimab: anti-TIGIT antibody with engineered IgG1 Fc, reduced FcγR binding; heavy chain SEQ ID NO: 12, light chain SEQ ID NO: 13 (antibody)
heavy: EVQLVESGGGLVQPGGSLRLSCAASGFTFSNFGMHWVRQAPGKGLEWVAFISSGSSSIYYADTVKGRFTISRDNAKNSLYLQMNSLRAEDTAVYYCARMRLDYYAMDYWGQGTMVTVSSASTKGPSVFPLAPSSKSTSGGTAALGCLVKDYFPEPVTVSWNSGALTSGVHTFPAVLQSSGLYSLSSVVTVPSSSLGTQTYICNVNHKPSNTKVDKKVEPKSCDKTHTCPPCPAPEAAGGPSVFLFPPKPKDTLMISRTPEVTCWVDVSHEDPEVKFNWYVDGVEVHNAKTKPREEQYNSTYRWSVLTVLHQDWLNGKEYKCKVSNKALPAPIEKTISKAKGQPREPQVYTLPPSRDELTKNQVSLTCLVKGFYPSDIAVEWESNGQPENNYKTTPPVLDSDGSFFLYSKLTVDKSRWQQGNVFSCSVMHEALHNHYTQKSLSLSPGK
light: DIQMTQSPSSLSASVGDRVTITCRASKSISKYLAWYQQKPGKAPKLLIYSGSTLQSGVPSRFSGSGSGTDFTLTISSLQPEDFATYYCQQHNEYPWTFGGGTKVEIKRTVAAPSVFIFPPSDEQLKSGTASWCLLNNFYPREAKVQWKVDNALQSGNSQESVTEQDSKDSTYSLSSTLTLSKADYEKHKVYACEVTHQGLSSPVTKSFNRGEC
Question: With B1 as the molecule, how does the “dose proportionality of PK” value ([1]; 0.5-10 mg/kg) read?
Answer: roughly dose proportional

Question: And the “increase of concentration at end of infusion (Ceoinf)” value [1, 3]?
Answer: 15 fold

Question: And the “increase of concentration at the end of the dosing interval (Ctrough)” value [1, 3]?
Answer: 27 fold

Question: And the “increase of mean area under the concentration time curve over the first dosage interval” value [1, 3]?
Answer: 17 fold

Question: And the “SAE small bowel obstruction, frequency” value ([2]; 99 participants)?
Answer: 4.0%

Question: What about the “Domvanalimab-related AE: Abdominal distension” value ([2]; AB154CSP0001 (N = 62)) of the same molecule?
Answer: 1 ( 1.6%)

Question: What about the “Domvanalimab-related AE: Abdominal pain” value ([2]; AB154CSP0001 (N = 62)) of the same molecule?
Answer: 1 ( 1.6%)

Question: And the “Domvanalimab-related AE: Anaemia” value ([2]; AB154CSP0001 (N = 62))?
Answer: 1 ( 1.6%)

Question: What about the “Domvanalimab-related AE: Any AEs” value ([2]; AB154CSP0001 (N = 62)) of the same molecule?
Answer: 32 (51.6%)

Question: What about the “Domvanalimab-related AE: Arthralgia” value ([2]; AB154CSP0001 (N = 62)) of the same molecule?
Answer: 1 (1.6%)

Question: And the “Domvanalimab-related AE: Arthritis” value ([2]; AB154CSP0001 (N = 62))?
Answer: 1 ( 1.6%)

Question: What about the “Domvanalimab-related AE: Aspartate aminotransferase increased” value ([2]; AB154CSP0001 (N = 62)) of the same molecule?
Answer: 1 ( 1.6%)

Question: What about the “Domvanalimab-related AE: Back pain” value ([2]; AB154CSP0001 (N = 62)) of the same molecule?
Answer: 1 ( 1.6%)

Question: And the “Domvanalimab-related AE: Constipation” value ([2]; AB154CSP0001 (N = 62))?
Answer: 1 ( 1.6%)

Question: What about the “Domvanalimab-related AE: Decreased appetite” value ([2]; AB154CSP0001 (N = 62)) of the same molecule?
Answer: 1 (1.6%)

Question: And the “Domvanalimab-related AE: Diarrhoea” value ([2]; AB154CSP0001 (N = 62))?
Answer: 3 (4.8%)

Question: What about the “Domvanalimab-related AE: Fatigue” value ([2]; AB154CSP0001 (N = 62)) of the same molecule?
Answer: 4 (6.5%)

Question: What about the “Domvanalimab-related AE: Flank pain” value ([2]; AB154CSP0001 (N = 62)) of the same molecule?
Answer: 1 ( 1.6%)

Question: And the “Domvanalimab-related AE: Headache” value ([2]; AB154CSP0001 (N = 62))?
Answer: 3 (4.8%)

Question: And the “Domvanalimab-related AE: Hot flush” value ([2]; AB154CSP0001 (N = 62))?
Answer: 1 ( 1.6%)

Question: And the “Domvanalimab-related AE: Hyperglycaemia” value ([2]; AB154CSP0001 (N = 62))?
Answer: 1 ( 1.6%)

Question: What about the “Domvanalimab-related AE: Hyperkalaemia” value ([2]; AB154CSP0001 (N = 62)) of the same molecule?
Answer: 1 ( 1.6%)

Question: And the “Domvanalimab-related AE: Hyperthyroidism” value ([2]; AB154CSP0001 (N = 62))?
Answer: 2 (3.2%)

Question: And the “Domvanalimab-related AE: Hypokalaemia” value ([2]; AB154CSP0001 (N = 62))?
Answer: 1 ( 1.6%)

Question: What about the “Domvanalimab-related AE: Hypothyroidism” value ([2]; AB154CSP0001 (N = 62)) of the same molecule?
Answer: 4 (6.5%)

Question: And the “Domvanalimab-related AE: Immune-mediated hepatitis” value ([2]; AB154CSP0001 (N = 62))?
Answer: 2 ( 3.2%)

Question: What about the “Domvanalimab-related AE: Influenza like illness” value ([2]; AB154CSP0001 (N = 62)) of the same molecule?
Answer: 1 ( 1.6%)

Question: And the “Domvanalimab-related AE: Infusion related reaction” value ([2]; AB154CSP0001 (N = 62))?
Answer: 1 ( 1.6%)

Question: And the “Domvanalimab-related AE: Liver function test increased” value ([2]; AB154CSP0001 (N = 62))?
Answer: 1 ( 1.6%)

Question: What about the “Domvanalimab-related AE: Lymphopenia” value ([2]; AB154CSP0001 (N = 62)) of the same molecule?
Answer: 1 ( 1.6%)

Question: What about the “Domvanalimab-related AE: Muscle spasms” value ([2]; AB154CSP0001 (N = 62)) of the same molecule?
Answer: 1 ( 1.6%)

Question: What about the “Domvanalimab-related AE: Musculoskeletal chest pain” value ([2]; AB154CSP0001 (N = 62)) of the same molecule?
Answer: 1 ( 1.6%)

Question: What about the “Domvanalimab-related AE: Nail disorder” value ([2]; AB154CSP0001 (N = 62)) of the same molecule?
Answer: 1 ( 1.6%)

Question: What about the “Domvanalimab-related AE: Nasal mucosal disorder” value ([2]; AB154CSP0001 (N = 62)) of the same molecule?
Answer: 1 ( 1.6%)

Question: And the “Domvanalimab-related AE: Nausea” value ([2]; AB154CSP0001 (N = 62))?
Answer: 5 (8.1%)

Question: And the “Domvanalimab-related AE: Oral pain” value ([2]; AB154CSP0001 (N = 62))?
Answer: 1 ( 1.6%)

Question: What about the “Domvanalimab-related AE: Pain” value ([2]; AB154CSP0001 (N = 62)) of the same molecule?
Answer: 2 ( 3.2%)

Question: And the “Domvanalimab-related AE: Peripheral sensory neuropathy” value ([2]; AB154CSP0001 (N = 62))?
Answer: 1 ( 1.6%)

Question: And the “Domvanalimab-related AE: Pneumonitis” value ([2]; AB154CSP0001 (N = 62))?
Answer: 1 ( 1.6%)

Question: And the “Domvanalimab-related AE: Pruritus” value ([2]; AB154CSP0001 (N = 62))?
Answer: 5 (8.1%)

Question: And the “Domvanalimab-related AE: Pruritus generalised” value ([2]; AB154CSP0001 (N = 62))?
Answer: 1 ( 1.6%)

Question: And the “Domvanalimab-related AE: Pulmonary pain” value ([2]; AB154CSP0001 (N = 62))?
Answer: 1 ( 1.6%)

Question: And the “Domvanalimab-related AE: Pyrexia” value ([2]; AB154CSP0001 (N = 62))?
Answer: 3 (4.8%)

Question: And the “Domvanalimab-related AE: Rash” value ([2]; AB154CSP0001 (N = 62))?
Answer: 1 (1.6%)

Question: And the “Domvanalimab-related AE: Rash maculo-papular” value ([2]; AB154CSP0001 (N = 62))?
Answer: 3 (4.8%)

Question: And the “Domvanalimab-related AE: Rash pruritic” value ([2]; AB154CSP0001 (N = 62))?
Answer: 1 ( 1.6%)

Question: And the “Domvanalimab-related AE: Transaminases increased” value ([2]; AB154CSP0001 (N = 62))?
Answer: 1 ( 1.6%)

Question: What about the “Domvanalimab-related AE: Tumour flare” value ([2]; AB154CSP0001 (N = 62)) of the same molecule?
Answer: 3 (4.8%)

Question: What about the “Domvanalimab-related AE: Tumour pain” value ([2]; AB154CSP0001 (N = 62)) of the same molecule?
Answer: 1 ( 1.6%)

Question: And the “Domvanalimab-related AE: Adrenal insufficiency” value ([2]; ARC-7 (N = 37))?
Answer: 1 ( 2.7%)

Question: And the “Domvanalimab-related AE: Any AEs” value ([2]; ARC-7 (N = 37))?
Answer: 18 (48.6%)

Question: What about the “Domvanalimab-related AE: Arthralgia” value ([2]; ARC-7 (N = 37)) of the same molecule?
Answer: 3 (8.1%)

Question: And the “Domvanalimab-related AE: Asthenia” value ([2]; ARC-7 (N = 37))?
Answer: 1 ( 2.7%)

Question: And the “Domvanalimab-related AE: Back pain” value ([2]; ARC-7 (N = 37))?
Answer: 1 ( 2.7%)

Question: What about the “Domvanalimab-related AE: Constipation” value ([2]; ARC-7 (N = 37)) of the same molecule?
Answer: 1 ( 2.7%)

Question: And the “Domvanalimab-related AE: Cough” value ([2]; ARC-7 (N = 37))?
Answer: 1 ( 2.7%)

Question: What about the “Domvanalimab-related AE: Decreased appetite” value ([2]; ARC-7 (N = 37)) of the same molecule?
Answer: 2 (5.4%)

Question: What about the “Domvanalimab-related AE: Delirium” value ([2]; ARC-7 (N = 37)) of the same molecule?
Answer: 1 ( 2.7%)

Question: And the “Domvanalimab-related AE: Diarrhoea” value ([2]; ARC-7 (N = 37))?
Answer: 2 (5.4%)

Question: And the “Domvanalimab-related AE: Dry eye” value ([2]; ARC-7 (N = 37))?
Answer: 1 ( 2.7%)

Question: And the “Domvanalimab-related AE: Dry mouth” value ([2]; ARC-7 (N = 37))?
Answer: 1 ( 2.7%)

Question: And the “Domvanalimab-related AE: Dyspnoea exertional” value ([2]; ARC-7 (N = 37))?
Answer: 1 ( 2.7%)

Question: And the “Domvanalimab-related AE: Fatigue” value ([2]; ARC-7 (N = 37))?
Answer: 2 (5.4%)

Question: What about the “Domvanalimab-related AE: Generalised oedema” value ([2]; ARC-7 (N = 37)) of the same molecule?
Answer: 1 ( 2.7%)

Question: And the “Domvanalimab-related AE: Headache” value ([2]; ARC-7 (N = 37))?
Answer: 1 (2.7%)

Question: What about the “Domvanalimab-related AE: Hyperthyroidism” value ([2]; ARC-7 (N = 37)) of the same molecule?
Answer: 1 (2.7%)

Question: What about the “Domvanalimab-related AE: Infusion related reaction” value ([2]; ARC-7 (N = 37)) of the same molecule?
Answer: 1 ( 2.7%)

Question: What about the “Domvanalimab-related AE: Infusion site pain” value ([2]; ARC-7 (N = 37)) of the same molecule?
Answer: 1 ( 2.7%)

Question: And the “Domvanalimab-related AE: Malaise” value ([2]; ARC-7 (N = 37))?
Answer: 2 ( 5.4%)

Question: What about the “Domvanalimab-related AE: Myalgia” value ([2]; ARC-7 (N = 37)) of the same molecule?
Answer: 1 ( 2.7%)

Question: And the “Domvanalimab-related AE: Nausea” value ([2]; ARC-7 (N = 37))?
Answer: 1 (2.7%)

Question: What about the “Domvanalimab-related AE: Pancreatitis” value ([2]; ARC-7 (N = 37)) of the same molecule?
Answer: 1 ( 2.7%)

Question: What about the “Domvanalimab-related AE: Paraesthesia” value ([2]; ARC-7 (N = 37)) of the same molecule?
Answer: 1 ( 2.7%)

Question: What about the “Domvanalimab-related AE: Pneumonitis” value ([2]; ARC-7 (N = 37)) of the same molecule?
Answer: 1 ( 2.7%)

Question: And the “Domvanalimab-related AE: Pruritus” value ([2]; ARC-7 (N = 37))?
Answer: 4 (10.8%)

Question: What about the “Domvanalimab-related AE: Pyrexia” value ([2]; ARC-7 (N = 37)) of the same molecule?
Answer: 2 (5.4%)

Question: What about the “Domvanalimab-related AE: Rash” value ([2]; ARC-7 (N = 37)) of the same molecule?
Answer: 3 (8.1%)
